A short description of this data set: self-splicing fitness, log relative to wild type (ln ratio); higher = more splicing; Tetrahymena group I intron in knt gene, E. coli kanamycin selection, DiMSum; sequences stand for … in CUCUCU…GGAGGGAAAAGUUAUCAGGCAUGCACCUGGUAGCUAGUCUUUAAACCAAUAGAUUGCAUCGGUUUAAAAGGCAAGACCGUCAAAUUGCGGGAAAGGGGUCAACAGCCGUUCAGUACCAAGUCUCAGGGGAAACUUUGAGAUGGCCUUGCAAAGGGUAUGGUAAUAAGCUGACGGACAUGGUCCUAACCACGCAGCCAAGUCCUAAGUCAACAGAUCUUCUGUUGAUAUGGAUGCAGUUCACAGACUAAAUGUCGGUCGGGGAAGAUGUAUUCUUCUCAUAAGAUAUAGUCGGACCUCUCCUUAAUGGGAGCUAGCGGAUGAAGUGAUGCAACACUGGAGCCGCUGGGAACUAAUUUGUAUGCGAAAGUAUAUUGAUUAGUUUUGGAGUACUCGUGGUCG
The essentials:
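Fitness was computed with DiMSum as the error-weighted combination of replicate fold changes, kanamycin versus none, each normalised to wild type. The library randomised all eight intron nucleotides of the P1ex region, with the intron placed in the knt kanamycin-resistance gene on pET-22b(+) in E. coli BL21(DE3). Six replicate transformations were grown overnight at 37°C or 30°C on LB agar with or without 25 μg/mL kanamycin, plus 100 μg/mL carbenicillin, 50 μM IPTG and 0.2% rhamnose. Pooled colonies were amplicon-sequenced on an Illumina HiSeq 2500.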

± gives the uncertainty stated by the source.

Turning to GAGUAGCAAUAUUACGAGAG, the “self-splicing fitness (ln)” value (30 °C) was -3.63 ± 0.24 and the “self-splicing fitness (ln)” value (37 °C) is -3.64 ± 0.27.

Take UCUCAGCAAUAUUACGGGCG: the “self-splicing fitness (ln)” value runs as follows: (30 °C) -0.717 ± 0.08; (37 °C) -0.262 ± 0.12.

For the sequence GCAUAGCAAUAUUACGGCGG, the “self-splicing fitness (ln)” value runs as follows: (30 °C) -2.63 ± 0.19; (37 °C) -2.26 ± 0.37.

Turning to GCUUAGCAAUAUUACGAGAA, the “self-splicing fitness (ln)” value (30 °C) was -1.2 ± 0.27 and the “self-splicing fitness (ln)” value (37 °C) is -0.264 ± 0.22.

As to GAGCAGCAAUAUUACGGCUU, the “self-splicing fitness (ln)” value was -4.43 ± 0.33 (30 °C) and -2.53 ± 0.27 (37 °C).

With GAAAAGCAAUAUUACGAAAC, the “self-splicing fitness (ln)” value is, setting by setting: (30 °C) -2.88 ± 0.14; (37 °C) -0.0376 ± 0.11.

With ACCCAGCAAUAUUACGGCCG, the “self-splicing fitness (ln)” value by setting is: (30 °C) -2.81 ± 0.15; (37 °C) -2.6 ± 0.19.

As for GGGAAGCAAUAUUACGUCAA, where the note is “30 °C”, the “self-splicing fitness (ln)” value is -1.34 ± 0.32.

Regarding CGGCAGCAAUAUUACGUAGA, the “self-splicing fitness (ln)” value runs as follows: (30 °C) -2.33 ± 0.12; (37 °C) -1.19 ± 0.17.

Consider UUCCAGCAAUAUUACGUCUC, for which the “self-splicing fitness (ln)” value was -3.17 ± 0.23 (30 °C) and -1.83 ± 0.2 (37 °C).

Take UUAAAGCAAUAUUACGCGUG: the “self-splicing fitness (ln)” value (30 °C) was -0.256 ± 0.056 and the “self-splicing fitness (ln)” value (37 °C) is -0.26 ± 0.068.

For the sequence GCUAAGCAAUAUUACGCUAC, the “self-splicing fitness (ln)” value reads like this: (30 °C) -2.37 ± 0.15; (37 °C) -2.44 ± 0.26.

As for CAUGAGCAAUAUUACGAACU, the “self-splicing fitness (ln)” value was -3.53 ± 0.19 (30 °C) and -2.95 ± 0.26 (37 °C).

GUGGAGCAAUAUUACGCAUU: the “self-splicing fitness (ln)” value by setting is: (30 °C) -2.84 ± 0.22; (37 °C) -1.14 ± 0.13.

Take UUCGAGCAAUAUUACGAAGG: the “self-splicing fitness (ln)” value is, setting by setting: (30 °C) -2.09 ± 0.23; (37 °C) -1.62 ± 0.27.

For the sequence UUAAAGCAAUAUUACGUUAU, the “self-splicing fitness (ln)” value reads like this: (30 °C) -2.14 ± 0.092; (37 °C) -1.23 ± 0.11.

In the case of UUUCAGCAAUAUUACGCUUA, the “self-splicing fitness (ln)” value runs as follows: (30 °C) -0.378 ± 0.086; (37 °C) 0.0227 ± 0.12.

CACCAGCAAUAUUACGAGGC: the “self-splicing fitness (ln)” value is -2.98 ± 0.17 (30 °C) and -2.46 ± 0.19 (37 °C).

As for AACCAGCAAUAUUACGCUAU, the “self-splicing fitness (ln)” value reads like this: (30 °C) -2.11 ± 0.094; (37 °C) -0.398 ± 0.093.

For the sequence CCUAAGCAAUAUUACGGUUC, the “self-splicing fitness (ln)” value is, setting by setting: (30 °C) -3.88 ± 0.23; (37 °C) -2.59 ± 0.22.

For GCUUAGCAAUAUUACGUACA, the “self-splicing fitness (ln)” value by setting is: (30 °C) -1.38 ± 0.13; (37 °C) -0.577 ± 0.14.

Consider UUCGAGCAAUAUUACGAGGC, for which the “self-splicing fitness (ln)” value was -2.45 ± 0.29 (30 °C) and -2.98 ± 0.3 (37 °C).

On to GAUAAGCAAUAUUACGUCAC, for which, where the note is “37 °C”, the “self-splicing fitness (ln)” value was -1.86 ± 0.27.

Turning to CACAAGCAAUAUUACGUCUC, the “self-splicing fitness (ln)” value is -3.1 ± 0.25 (30 °C) and -2.5 ± 0.22 (37 °C).

Turning to CAAUAGCAAUAUUACGUGCC, the “self-splicing fitness (ln)” value reads like this: (30 °C) -2.98 ± 0.26; (37 °C) -3.02 ± 0.32.

Regarding CCAUAGCAAUAUUACGCGAG, the “self-splicing fitness (ln)” value was -2.77 ± 0.16 (30 °C) and -1.22 ± 0.13 (37 °C).

As to CCAAAGCAAUAUUACGCAGA, the “self-splicing fitness (ln)” value is, setting by setting: (30 °C) -3.75 ± 0.19; (37 °C) -2.65 ± 0.18.

Take UUCAAGCAAUAUUACGGGCU: the “self-splicing fitness (ln)” value is, setting by setting: (30 °C) -3.7 ± 0.21; (37 °C) -1.81 ± 0.16.

For the sequence CGCCAGCAAUAUUACGCUGG, the “self-splicing fitness (ln)” value reads like this: (30 °C) -3.22 ± 0.17; (37 °C) -2.2 ± 0.18.

As for AGCCAGCAAUAUUACGACGG, the “self-splicing fitness (ln)” value reads like this: (30 °C) -4.18 ± 0.42; (37 °C) -1.35 ± 0.25.

Take AACAAGCAAUAUUACGACAC: the “self-splicing fitness (ln)” value reads like this: (30 °C) -1.66 ± 0.085; (37 °C) -0.431 ± 0.097.

UGGGAGCAAUAUUACGUAUU: the “self-splicing fitness (ln)” value by setting is: (30 °C) -2.76 ± 0.33; (37 °C) -1.91 ± 0.28.

Turning to AGAAAGCAAUAUUACGCCGA, the “self-splicing fitness (ln)” value was -1.29 ± 0.15 (30 °C) and -0.795 ± 0.15 (37 °C).

As to UCCCAGCAAUAUUACGAACU, the “self-splicing fitness (ln)” value is, setting by setting: (30 °C) -3.52 ± 0.33; (37 °C) -2.92 ± 0.43.

With GAUGAGCAAUAUUACGGAUG, the “self-splicing fitness (ln)” value (30 °C) was -2.78 ± 0.19 and the “self-splicing fitness (ln)” value (37 °C) was -2.89 ± 0.26.

As to GCAGAGCAAUAUUACGUCGG, the “self-splicing fitness (ln)” value was -2.57 ± 0.34 (30 °C) and -1.69 ± 0.46 (37 °C).

Take UAUCAGCAAUAUUACGCUCC: the “self-splicing fitness (ln)” value by setting is: (30 °C) -1 ± 0.29; (37 °C) -0.504 ± 0.31.

In the case of CUCCAGCAAUAUUACGUUUU, the “self-splicing fitness (ln)” value is, setting by setting: (30 °C) -3.38 ± 0.12; (37 °C) -3.12 ± 0.15.

As for AGACAGCAAUAUUACGUACU, the “self-splicing fitness (ln)” value is, setting by setting: (30 °C) -0.834 ± 0.062; (37 °C) -0.36 ± 0.086.

Consider GUUAAGCAAUAUUACGUUCC, for which the “self-splicing fitness (ln)” value by setting is: (30 °C) -2.16 ± 0.18; (37 °C) -0.875 ± 0.23.

Turning to GAGAAGCAAUAUUACGAGCC, the “self-splicing fitness (ln)” value is -1.03 ± 0.097 (30 °C) and -0.808 ± 0.15 (37 °C).

Take CUUGAGCAAUAUUACGGUUC: the “self-splicing fitness (ln)” value reads like this: (30 °C) -3.56 ± 0.35; (37 °C) -2.51 ± 0.36.

Consider UCGCAGCAAUAUUACGGGCU, for which the “self-splicing fitness (ln)” value (30 °C) was -3.71 ± 0.17 and the “self-splicing fitness (ln)” value (37 °C) is -2.63 ± 0.16.

Turning to AGUUAGCAAUAUUACGAGGG, the “self-splicing fitness (ln)” value was -4.11 ± 0.38 (30 °C) and -2.06 ± 0.33 (37 °C).

As for UGAAAGCAAUAUUACGAUUC, the “self-splicing fitness (ln)” value by setting is: (30 °C) -2.53 ± 0.18; (37 °C) -2 ± 0.22.

For the sequence UAUUAGCAAUAUUACGGGCA, the “self-splicing fitness (ln)” value runs as follows: (30 °C) -0.498 ± 0.19; (37 °C) -0.39 ± 0.17.

In the case of UACCAGCAAUAUUACGGACA, the “self-splicing fitness (ln)” value was -0.227 ± 0.061 (30 °C) and 0.423 ± 0.076 (37 °C).

With CUUAAGCAAUAUUACGGGCA, the “self-splicing fitness (ln)” value (30 °C) was -3.03 ± 0.23 and the “self-splicing fitness (ln)” value (37 °C) is -2.3 ± 0.25.

For the sequence GCAGAGCAAUAUUACGUUAA, the “self-splicing fitness (ln)” value was -1.87 ± 0.27 (30 °C) and -2.64 ± 0.42 (37 °C).

CCCCAGCAAUAUUACGGAUA: the “self-splicing fitness (ln)” value runs as follows: (30 °C) -3.92 ± 0.24; (37 °C) -2.65 ± 0.16.

On to UCUGAGCAAUAUUACGAAGU, for which the “self-splicing fitness (ln)” value was -2.62 ± 0.16 (30 °C) and -1.56 ± 0.19 (37 °C).

Regarding AGUGAGCAAUAUUACGCUAA, the “self-splicing fitness (ln)” value (37 °C) is -2.09 ± 0.26.

As for CAUGAGCAAUAUUACGCACA, the “self-splicing fitness (ln)” value reads like this: (30 °C) -2.8 ± 0.2; (37 °C) -2.44 ± 0.23.

In the case of CCUUAGCAAUAUUACGUCAU, the “self-splicing fitness (ln)” value is -3.85 ± 0.21 (30 °C) and -2.96 ± 0.24 (37 °C).

In the case of CGGAAGCAAUAUUACGGGUU, the “self-splicing fitness (ln)” value (30 °C) is -4.48 ± 0.26 and the “self-splicing fitness (ln)” value (37 °C) is -2.77 ± 0.2.

CUCAAGCAAUAUUACGGUAC: the “self-splicing fitness (ln)” value (37 °C) was -3.06 ± 0.37.

As for GGCAAGCAAUAUUACGUCCC, the “self-splicing fitness (ln)” value (37 °C) was -0.249 ± 0.28.

In the case of CGUUAGCAAUAUUACGGCGC, under “37 °C”, the “self-splicing fitness (ln)” value was -2.24 ± 0.32.

Regarding GGUCAGCAAUAUUACGGUUA, the “self-splicing fitness (ln)” value is -0.399 ± 0.081 (30 °C) and 0.53 ± 0.076 (37 °C).

AAUGAGCAAUAUUACGGGGU: the “self-splicing fitness (ln)” value is, setting by setting: (30 °C) -2.97 ± 0.18; (37 °C) -2.29 ± 0.21.

For GGCUAGCAAUAUUACGUGUC, the “self-splicing fitness (ln)” value runs as follows: (30 °C) -1.67 ± 0.18; (37 °C) -1.26 ± 0.23.

With UUCCAGCAAUAUUACGUUUC, the “self-splicing fitness (ln)” value is -3.24 ± 0.23 (30 °C) and -2.17 ± 0.21 (37 °C).

These data come from the supplement of paper PMC7877785.
